The results in this text go back to patent US20070148163A1 (Kyowa Kirin, published 2007).

Assay [1] concerns the target T1, CD40mut2 (mutant CD40-FC fusion protein) (UniProt P25942 21-193, limits assumed).
T1 construct: Human CD40 implied
Kind of assay: ELISA on mutant CD40-FC fusion protein.

The target of assay [2] is T2, 20th of the 82 13-mer peptides covering the extracellular region of CD40 (cysteine pairing not given here; reading uncertain).
T2 construct: also called 20th peptide
T2 peptide: Ac-CLPCGESEFLDTW-{cellulose membrane}
In words: SPOT peptide array (13-mers on cellulose membrane), Western-type detection, spot intensity by LumiImager. The procedure:
(§1) The reaction thereafter was carried out based on a conventional Western analysis (see Reineke, U. et al. (2001), “Epitope mapping with synthetic peptides prepared by SPOT synthesis.” Antibody Engineering (Springer Lab Manual) Eds.: Kontermann/Dubel, 433-459, for example). In the analysis, coloring intensity of each spot was quantified using Lumilmager™ (Boehringer-Mannheim Corp.) (FIG. 1A-1, 1A-2, 1B-1 and B-2).

The target in assay [3] is T3, 41st of the 82 13-mer peptides covering the extracellular region of CD40 (cysteine pairing not given here; reading uncertain).
T3 construct: also called 41st peptide
T3 peptide: Ac-TICTCEEGWHCTS-{cellulose membrane}
The description is as above. The procedure:
as §1

In assay [4] the target is T4, 22nd of the 82 13-mer peptides covering the extracellular region of CD40 (reading uncertain).
T4 construct: also called 22nd peptide
T4 peptide: Ac-GESEFLDTWNRET-{cellulose membrane}
The description is as above. As to the method:
as §1

Assay [5] addresses T5, 23rd of the 82 13-mer peptides covering the extracellular region of CD40 (reading uncertain).
T5 construct: also called 23rd peptide
T5 peptide: Ac-SEFLDTWNRETHC-{cellulose membrane}
The assay is described as above. The procedure:
as §1

In assay [6] the target is T6, 24th of the 82 13-mer peptides covering the extracellular region of CD40 (reading uncertain).
T6 construct: also called 24th peptide
T6 peptide: Ac-FLDTWNRETHCHQ-{cellulose membrane}
The assay is described as above. As to the method:
as §1

In assay [7] the target is T7, 21st of the 82 13-mer peptides covering the extracellular region of CD40 (reading uncertain).
T7 construct: also called 21st peptide
T7 peptide: Ac-PCGESEFLDTWNR-{cellulose membrane}
The assay is described as above. As to the method: as §1

The target in assay [8] is T8, human CD40 expressed on cells (Ramos, T24, Hs 766T, Capan-2) (human, UniProt P25942 21-277).
T8 construct: whole, on cells; also called Ramos cells expressing human CD40
T8 sequence (P25942 21-277): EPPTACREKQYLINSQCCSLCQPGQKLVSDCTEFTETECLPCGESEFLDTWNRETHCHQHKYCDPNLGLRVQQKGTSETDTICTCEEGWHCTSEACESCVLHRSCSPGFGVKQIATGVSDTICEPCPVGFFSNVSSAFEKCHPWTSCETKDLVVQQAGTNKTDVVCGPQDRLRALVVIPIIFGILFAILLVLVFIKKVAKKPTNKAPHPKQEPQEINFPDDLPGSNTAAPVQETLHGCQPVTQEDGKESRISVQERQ
In words: flow cytometry on Ramos cells. In general terms: A flow cytometer gives signals particle by particle.

In assay [9] the target is T8, human CD40 expressed on cells (Ramos, …). Kind of assay: cell-based or functional assay.
Assay [10] deals with T9, 42nd of the 82 13-mer peptides covering the extracellular region of CD40 (cysteine pairing not given here; reading uncertain).
T9 construct: also called 42nd peptide
T9 peptide: Ac-CTCEEGWHCTSEA-{cellulose membrane}
In words: SPOT peptide array (13-mers on cellulose membrane), Western-type detection, spot intensity by LumiImager. As to the method: as §1

In assay [11] the target is T10, 19th of the 82 13-mer peptides covering the extracellular region of CD40 (cysteine pairing not given here; reading uncertain).
T10 construct: also called 19th peptide
T10 peptide: Ac-TECLPCGESEFLD-{cellulose membrane}
Described as above. As to the method:
as §1

Assay [12] has as its target T11, 12th of the 82 13-mer peptides covering the extracellular region of CD40 (reading uncertain).
T11 construct: also called 12th peptide
T11 peptide: Ac-PGQKLVSDCTEFT-{cellulose membrane}
The description is as above. As to the method: as §1

Assay [13] has as its target T12, 17th of the 82 13-mer peptides covering the extracellular region of CD40 (cysteine pairing not given here; reading uncertain).
T12 construct: also called 17th peptide
T12 peptide: Ac-EFTETECLPCGES-{cellulose membrane}
The description is as above. As to the method: as §1

Assay [14] has as its target T13, 14th of the 82 13-mer peptides covering the extracellular region of CD40 (cysteine pairing not given here; reading uncertain).
T13 construct: also called 14th peptide
T13 peptide: Ac-LVSDCTEFTETEC-{cellulose membrane}
The description is as above. As to the method:
as §1

For assay [15], the target named is T14, 15th of the 82 13-mer peptides covering the extracellular region of CD40 (cysteine pairing not given here; reading uncertain).
T14 construct: also called 15th peptide
T14 peptide: Ac-SDCTEFTETECLP-{cellulose membrane}
Described as above. The procedure: as §1

The target of assay [16] is T15, 16th of the 82 13-mer peptides covering the extracellular region of CD40 (cysteine pairing not given here; reading uncertain).
T15 construct: also called 16th peptide
T15 peptide: Ac-CTEFTETECLPCG-{cellulose membrane}
The description is as above. The procedure:
as §1

In assay [17] the target is T16, 18th of the 82 13-mer peptides covering the extracellular region of CD40 (cysteine pairing not given here; reading uncertain).
T16 construct: also called 18th peptide
T16 peptide: Ac-TETECLPCGESEF-{cellulose membrane}
Described as above. The procedure: as §1

For assay [18], the target named is T17, 64th of the 82 13-mer peptides covering the extracellular region of CD40 (reading uncertain).
T17 construct: also called 64th peptide
T17 peptide: Ac-PVGFFSNVSSAFE-{cellulose membrane}
The description is as above. As to the method:
as §1

The target of assay [19] is T18, 13th of the 82 13-mer peptides covering the extracellular region of CD40 (reading uncertain).
T18 construct: also called 13th peptide
T18 peptide: Ac-QKLVSDCTEFTET-{cellulose membrane}
The assay is described as above. As to the method:
as §1

cellulose membrane = not defined here

T1 sequence (P25942 other isoform, or with tags, fused parts or gaps mutant limits assumed): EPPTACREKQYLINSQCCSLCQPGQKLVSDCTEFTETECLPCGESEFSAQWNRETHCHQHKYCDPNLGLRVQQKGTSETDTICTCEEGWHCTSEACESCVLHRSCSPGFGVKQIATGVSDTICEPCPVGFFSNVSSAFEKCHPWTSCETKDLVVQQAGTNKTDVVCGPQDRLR

B1: 4D11 antibody (original subclass IgG1) (antibody, V domains shown)
VH: QLQLQESGPGLLKPSETLSLTCTVSGGSISSPGYYGGWIRQPPGKGLEWIGSIYKSGSTYHNPSLKSRVTISVDTSKNQFSLKLSSVTAADTAVYYCTRPVVRYFGWFDPWGQGTLVTVSS
VL: AIQLTQSPSSLSASVGDRVTITCRASQGISSALAWYQQKPGKAPKLLIYDASNLESGVPSRFSGSGSGTDFTLTISSLQPEDFATYYCQQFNSYPTFGQGTKVEIK
notes: also called 4D11G1
B1: the binding result in assay [1], in assay [2], in assay [3], in assay [4], in assay [5] and in [6] was “binds” throughout. The binding result in assay [7] and in assay [8] was “binds” each time.

B2: 4D11G4P (4D11 antibody, IgG4 with S228P) (antibody, V domains shown)
VH: B1 VH
VL: B1 VL
notes: Human IgG4 constant region with point mutation S228P (EU index; vector N5KG4P); also called IgG4P
Turning to B2, in [8], the binding result is reported as “binds”.

B3: 4D11 antibody IgG4 (antibody, V domains shown)
VH: B1 VH
VL: B1 VL
notes: Human IgG4 constant region (vector N5KG4), no point mutation; also called 4D11 IgG4
Take B3: the binding result in assay [8] is on record as “binds”.

B4: 4D11G4PE (4D11 antibody, IgG4 with S228P and L235E) (antibody, V domains shown)
VH: B1 VH
VL: AIQLTQSPSSLSASVGDRVTITCRASQGISSALAWYQQKPGKAPKLLIYDASNLESGVPSRFSGSGSGTDFTLTISSLQPEDFATYYCQQFNSYPTFGQGTKVEIKR
notes: also called IgG4PE; 4D11 antibody G4PE
For B4, the binding result in assay [8] is reported as “binds”.

B5: KM341-1-19 antibody, constant region converted into IgG1 (antibody, V domains shown)
VH: QVQLQQSGPGLVKPSQTLSLTCAISGDSVSSNSATWNWIRQSPSRDLEWLGRTYYRSKWYRDYVGSVKSRIIINPDTSNNQFSLQLNSVTPEDTAIYYCTRAQWLGGDYPYYYSMDVWGQGTTVTVSS
VL: EIVLTQSPATLSLSPGERATLSCRASQSVSSYLAWYQQKPGQAPRLLIYDASNRATGIPARFSGSGSGTDFTLTISSLEPEDFAVYYCQQRSNTFGPGTKVDIK
For the molecule B5, in assay [9], the “CD95 expression enhancing activity in Ramos cells, reduction against IgG2” value was no less than 10%.

B6: KM341-1-19 antibody, constant region converted into IgG3 (antibody, V domains shown)
VH: B5 VH
VL: B5 VL
Take B6: the “CD95 expression enhancing activity in Ramos cells, reduction against IgG2” value in assay [9] was no less than 10%.

B7: KM341-1-19 antibody, constant region converted into IgG4 (antibody, V domains shown)
VH: B5 VH
VL: B5 VL
For the molecule B7, the “CD95 expression enhancing activity in Ramos cells, reduction against IgG2” value in assay [9] is no less than 10%.

B8: KM341-1-19 antibody (original IgG2) (antibody)
heavy: QVQLQQSGPGLVKPSQTLSLTCAISGDSVSSNSATWNWIRQSPSRDLEWLGRTYYRSKWYRDYVGSVKSRIIINPDTSNNQFSLQLNSVTPEDTAIYYCTRAQWLGGDYPYYYSMDVWGQGTTVTVSSASTKGPSVFPLAPCSRSTSESTAALGCLVKDYFPEPVTVSWNSGALTSGVHTFPAVLQSSGLYSLSSVVTVPSSNFGTQTYTCNVDHKPSNTKVDKTVERKCCVECPPCPAPPVAGPSVFLFPPKPKDTLMISRTPEVTCVVVDVSHEDPEVQFNWYVDGVEVHNAKTKPREEQFNSTFRVVSVLTVVHQDWLNGKEYKCKVSNKGLPAPIEKTISKTKGQPREPQVYTLPPSREEMTKNQVSLTCLVKGFYPSDIAVEWESNGQPENNYKTTPPMLDSDGSFFLYSKLTVDKSRWQQGNVFSCSVMHEALHNHYTQKSLSLSPGK
VL: B5 VL
notes: Human IgG2; also called original KM341-1-19 antibody
As for B8, the binding result in assay [3] and in assay [10] was “binds” throughout.

B9: 2105 antibody, constant region converted into IgG1 (antibody, V domains shown)
VH: EVQLVESGGGLVQPGRSLRLSCAASGFTFDDYAMHWVRQAPGKGLEWVSGISWNSGSLVHADSVKGRFTISRDNAKNSLYLQMNSLRAEDTALYYCARDRLFRGVRYYGMDVWGQGTTVTVSS
VL: EIVLTQSPATLSLSPGERATLSCRASQSVSSYLAWYQQKPGQAPRLLIYDASNRATGIPARFSGSGSGTDFTLTISSLEPEDFAVYYCQQRSHWLTFGGGTKVEIK
B9: in assay [9], the “CD95 expression enhancing activity in Ramos cells, reduction against IgG2” value was no less than 10%.

B10: 2105 antibody, constant region converted into IgG3 (antibody, V domains shown)
VH: B9 VH
VL: B9 VL
Turning to B10, the “CD95 expression enhancing activity in Ramos cells, reduction against IgG2” value in [9] was no less than 10%.

B11: 2105 antibody (original IgG2) (antibody, V domains shown)
VH: B9 VH
VL: B9 VL
Take B11: the binding result in [11], in assay [2], in [4], in assay [12], in assay [13] and in assay [14] was “binds” throughout. Moreover, the binding result in [5], in assay [15], in assay [16], in [17], in [7] and in assay [18] was “binds” throughout. Also, the binding result in assay [19] is given as “binds”.

B12: 2105 antibody, constant region converted into IgG4 (antibody, V domains shown)
VH: B9 VH
VL: B9 VL
Regarding B12, the “CD95 expression enhancing activity in Ramos cells, reduction against IgG2” value in assay [9] is no less than 10%.
